The labels stand for the following.
T1: human CNTN4-rabbit Fc (human; rabbit, UniProt Q8IWV2 19-1000, limits assumed)
T1 construct: not shown: rabbit Fc
T1 sequence (looked up): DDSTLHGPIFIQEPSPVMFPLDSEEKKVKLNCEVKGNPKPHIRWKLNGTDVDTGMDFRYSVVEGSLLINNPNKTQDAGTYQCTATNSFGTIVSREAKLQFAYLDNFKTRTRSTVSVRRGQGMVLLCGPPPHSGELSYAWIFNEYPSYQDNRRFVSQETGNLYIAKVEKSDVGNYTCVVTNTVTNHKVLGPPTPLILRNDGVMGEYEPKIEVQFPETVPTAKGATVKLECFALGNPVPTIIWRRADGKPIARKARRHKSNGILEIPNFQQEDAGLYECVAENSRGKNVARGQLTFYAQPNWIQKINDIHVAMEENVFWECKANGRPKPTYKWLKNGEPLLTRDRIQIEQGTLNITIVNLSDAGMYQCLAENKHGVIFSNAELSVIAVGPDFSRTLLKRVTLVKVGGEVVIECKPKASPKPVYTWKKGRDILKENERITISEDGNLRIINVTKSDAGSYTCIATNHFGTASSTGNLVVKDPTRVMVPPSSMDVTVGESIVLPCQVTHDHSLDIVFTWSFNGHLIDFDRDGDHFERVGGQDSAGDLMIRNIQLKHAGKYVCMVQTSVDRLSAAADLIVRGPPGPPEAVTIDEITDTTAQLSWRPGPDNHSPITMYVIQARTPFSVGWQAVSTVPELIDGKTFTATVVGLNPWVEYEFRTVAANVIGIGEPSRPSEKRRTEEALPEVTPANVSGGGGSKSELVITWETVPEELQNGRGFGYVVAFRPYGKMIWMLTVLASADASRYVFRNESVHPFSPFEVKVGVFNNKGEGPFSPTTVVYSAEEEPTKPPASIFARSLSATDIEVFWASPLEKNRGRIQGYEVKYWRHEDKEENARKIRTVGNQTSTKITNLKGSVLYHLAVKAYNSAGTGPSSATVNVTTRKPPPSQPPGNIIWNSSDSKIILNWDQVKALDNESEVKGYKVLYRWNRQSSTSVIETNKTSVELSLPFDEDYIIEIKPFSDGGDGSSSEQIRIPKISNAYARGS

T2: mouse CNTN4-rabbit Fc (mouse; rabbit, UniProt Q69Z26 19-1000, limits assumed)
T2 construct: not shown: rabbit Fc
T2 sequence (looked up): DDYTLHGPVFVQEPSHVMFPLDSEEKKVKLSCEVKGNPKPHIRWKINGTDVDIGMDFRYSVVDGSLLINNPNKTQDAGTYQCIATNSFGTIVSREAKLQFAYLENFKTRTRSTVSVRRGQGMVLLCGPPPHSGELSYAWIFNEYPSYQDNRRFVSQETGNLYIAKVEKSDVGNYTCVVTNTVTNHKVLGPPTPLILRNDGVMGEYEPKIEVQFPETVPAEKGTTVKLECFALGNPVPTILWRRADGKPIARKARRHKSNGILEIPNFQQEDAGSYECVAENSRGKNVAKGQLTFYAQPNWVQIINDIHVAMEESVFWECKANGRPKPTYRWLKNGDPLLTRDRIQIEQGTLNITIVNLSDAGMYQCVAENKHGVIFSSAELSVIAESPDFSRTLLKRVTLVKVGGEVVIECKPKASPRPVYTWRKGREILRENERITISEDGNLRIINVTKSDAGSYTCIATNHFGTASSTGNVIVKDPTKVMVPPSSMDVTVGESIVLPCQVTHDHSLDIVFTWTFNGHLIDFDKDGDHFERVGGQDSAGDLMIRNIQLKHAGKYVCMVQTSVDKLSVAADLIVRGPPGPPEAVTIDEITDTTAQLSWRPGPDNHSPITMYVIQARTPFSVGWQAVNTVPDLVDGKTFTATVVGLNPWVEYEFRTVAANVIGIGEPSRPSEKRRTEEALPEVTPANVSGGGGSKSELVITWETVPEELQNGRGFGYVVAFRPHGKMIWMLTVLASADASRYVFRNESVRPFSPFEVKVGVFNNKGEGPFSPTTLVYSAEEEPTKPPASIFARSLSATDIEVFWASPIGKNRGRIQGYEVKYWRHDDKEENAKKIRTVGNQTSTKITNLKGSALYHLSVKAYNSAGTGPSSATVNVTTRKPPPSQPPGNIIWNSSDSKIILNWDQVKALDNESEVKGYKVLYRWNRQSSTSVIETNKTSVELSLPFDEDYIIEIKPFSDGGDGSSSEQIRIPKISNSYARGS

T3: human CNTN4 antigen expressed on the cell membrane of 293FT cells (human, UniProt Q8IWV2 19-1000)
T3 construct: whole, on cells; also called Human CNTN4 transfected cell
T3 sequence (looked up): T1 sequence (looked up)

B1: anti-CNTN4 IgG A13WB2 (antibody, V domains shown)
VH: AVTLDESGGGLHTPGGALSLVCKASGFTFSSYGMAWVRQAPGKGLEWVAGITSSGSSAGYGPAVKGRATISRDNGQSTVRLQLNNLRAEDTATYYCAKDGYIYSGADSDSIDAWGHGTEVIVSS
VL: ALTQPSSVSANLGGTVEITCSGGYSGYGWYQQKSPGSAPVTLIYYNDKRPSDIPSRFSGSKSGSTGTLTITGVQAEDEAVYFCGSRDSSTYVDIFGAGTTLTVL
notes: human IgG4 (S228P)
B2: anti-CNTN4 IgG A13WB4 (antibody, V domains shown)
VH: B1 VH
VL: ALTQPSSVSANPGETVEITCSGGSSDYGYGWYQQKSPGSAPVTVIYYNNNRPSDIPSRFSGSLSGSTNTLTITGVQADDEAVYFCGSRDSSSGYVDIFGAGTTLTVL
notes: human IgG4 (S228P)
B3: anti-CNTN4 IgG A13SF8 (antibody, V domains shown)
VH: B1 VH
VL: ALTQPSSVSANPGGTVKITCSGSGNYGWYQQKSPGSALVTVIYYNDKRPSDIPSRFSGSTSGSTGTLTITGVQVEDEAVYYCGGYDGYSFASIFGAGTTLTVL
notes: human IgG4 (S228P)
B4: anti-CNTN4 IgG A13WB24 (antibody, V domains shown)
VH: B1 VH
VL: ALTQPSSVSANPGGTVEITCSGGGNNNYGWYQQKSPGSAPVTLIYYNDNRPSDIPSRFSGSKSGSTATLTITGVQAEDEAVYYCGGYDISYVDIFGAGTTLTVL
notes: human IgG4 (S228P)
B5: anti-CNTN4 IgG A35SF8 (antibody, V domains shown)
VH: B1 VH
VL: ALTQPSSVSANLGGTVKITCSGGGGSYGWFQQKSPGSAPVTLIYNNNNRPSDIPSRFSGSKSGSTATLTITGVQAEDEAVYFCGGYDDSTYVGMFGAGTTLTVL
notes: human IgG4 (S228P)
B6: anti-CNTN4 IgG A13SF2 (antibody, V domains shown)
VH: B1 VH with H12Q, V21I
VL: ALTQPSSVSANLGGTVKITCSGGGGSYGWYRQKSPGSAPVTLIYNNNNRPSDIPSRFSGSTSGSTGTLTITGVQADDEAVYFCGGYDSSAGYAALFGAGTTLTVL
notes: human IgG4 (S228P)
B7: anti-CNTN4 IgG A13SF7 (antibody, V domains shown)
VH: B1 VH
VL: ALTQPSSVSANLGGTVEITCSGGSGSYGWYQQKSPGSAPVTLIYDNTNRPSNIPSRFSGSTSGSTSTLTITGVQADDEAVYFCGSADTNAAYAAIFGAGTTLTVL
notes: human IgG4 (S228P)
B8: anti-CNTN4 IgG A13WB7 (antibody, V domains shown)
VH: B1 VH
VL: ALTQPSSVSANPGETVKITCSGGGSSSYYNYGWYQQKSPGSAPVTVIYYNDKRPSDIPSRFSGSKSGSTGTLTITGVQAEDEAVYYCGSWDSSTYSDIFGAGTTLTVL
notes: human IgG4 (S228P)
B9: anti-CNTN4 IgG A13WB73 (antibody, V domains shown)
VH: B1 VH with A17V
VL: ALTQPSSVSANLGGTVEITCSGGYSGYGWYQQMSPGSAPVTLTYYNDKRPSNIPSRFSGSKSGSTATLAITGVQAEDEAVYYCGSWDTSTNTPIFGAGTTLTVL
notes: human IgG4 (S228P)
B10: anti-CNTN4 IgG A13WB25 (antibody, V domains shown)
VH: B1 VH
VL: B1 VL with Y24G, S25G, G26S, L42V, S85G, R86Y, S88G, V92A, D93G
notes: human IgG4 (S228P)
B11: anti-CNTN4 IgG A13SF1 (antibody, V domains shown)
VH: B1 VH with H12Q, A17G
VL: B5 VL with D88S, M94T
notes: human IgG4 (S228P)
B12: anti-CNTN4 IgG A13SF21 (antibody, V domains shown)
VH: B1 VH
VL: ALTQPSSVSANLGGTVEITCSGSSGSYGWYQQKAPGSAPVTVIYNNNNRPSGIPSRFSGALSGSTATLTITGVQAEDEAVYFCGGYDSSTYVGIFGAGTTLTVL
notes: human IgG4 (S228P)
B13: anti-CNTN4 IgG A35SF38 (antibody, V domains shown)
VH: B1 VH
VL: B12 VL with E17K, I18L, A34S, V42L, G52D, A60S, L61T, A66G, Q74R, G93A
notes: human IgG4 (S228P)
B14: anti-CNTN4 IgG A13SF16 (antibody, V domains shown)
VH: B1 VH with H12Q, A17G
VL: B5 VL with G23S, N47D, D88S, G93D, M94T
notes: human IgG4 (S228P)
B15: anti-CNTN4 IgG A35SF14 (antibody, V domains shown)
VH: B1 VH
VL: B5 VL with L12P, G14E, V16I, F30Y, L42V, N46G, D88S, S89G, V92S, M94I
notes: human IgG4 (S228P)

Numbering of substitutions follows the chain as printed. Names and notes keep the numbering of the source.

One assay has as its target T1, human CNTN4-rabbit Fc. Briefly: ELISA, plate coated with antigen-rabbit Fc, anti-human IgG Fc-HRP. How it is done:
(§1) An ELISA tests were performed on a total of 25 scFv-hCks and a total of 27 IgGs for which the expression was confirmed in Example 1.2. An ELISA plate was coated with 200 ng of antigens (human CNTN4-rabbit Fc or mouse CNTN4-rabbit Fc). 200 ng of a negative control (human antigen-rabbit Fc) for a tagging protein was used. For antibody binding, anti-CNTN4 scFv-hCk was serially diluted from a maximum of 1 μM to 0.001 nM by 1/10×each, and anti-CNTN4 IgG was serially diluted from a maximum of 10 nM to 0.00001 nM by 1/10×each, thereby binding to the antigen. Anti-human kappa-HRP or anti-human IgG Fc-HRP was used as the secondary antibody for antibody detection. Color was developed using ABTS, which is a color developing reagent, and the absorbance at 405 nm was measured.
Take B1: it took 0.01 nM to reach a half-maximal effect (EC50). This counts as picomolar.

Molecule B2 had an EC50 of 0.01 nM. This counts as picomolar.

Molecule B3 registered an EC50 of 0.01 nM. This counts as picomolar.

For B4, a half-maximal response (EC50) required 0.01 nM. That is a picomolar value.

For the molecule B5, it took 0.01 nM to reach a half-maximal effect (EC50). In other words, the picomolar range.

Take B6: the half-maximal effective concentration (EC50) was 0.01 nM.

As to B7, the EC50 is 0.01 nM.

B8 displayed an EC50 of 0.01 nM.

For the molecule B9, the EC50 amounted to 0.01 nM.

The molecule B10 returned an EC50 of 0.01 nM.

The molecule B11 came in with an EC50 of 0.01 nM.

In turn, B12 returned a 50% effective concentration (EC50) of 0.01 nM.

B13 displayed an EC50 of 0.01 nM.

For the molecule B14, the EC50 amounted to 0.01 nM.

B15 had an EC50 of 0.01 nM.

For a further assay, the target named is T2, mouse CNTN4-rabbit Fc. Described as above. Here is the method:
as §1
As to B1, the EC50 turned out to be 0.01 nM. In other words, the picomolar range.

B2 displayed an EC50 of 0.01 nM.

With B3, the 50% effective concentration (EC50) was 0.01 nM.

Molecule B4 came in with a 50% effective concentration (EC50) of 0.01 nM.

B5 returned a concentration giving a half-maximal response (EC50) of 0.02 nM.

As to B6, it took 0.01 nM to reach a half-maximal effect (EC50). This EC50 is about 2-fold lower than that of the molecule before.

Molecule B7 returned an EC50 of 0.01 nM.

Regarding B8, the EC50 was 0.01 nM.

B9 returned an EC50 of 0.01 nM.

For the molecule B10, a half-maximal effect (EC50) was put at 0.01 nM.

The molecule B11 showed a half-maximal effective concentration (EC50) of 0.02 nM.

As for B12, the concentration for a half-maximal effect (EC50) is 0.01 nM. This EC50 is about 2-fold lower than that of the molecule before.

For the molecule B13, the concentration giving a half-maximal response (EC50) amounted to 0.01 nM.

Molecule B14 registered an EC50 of 0.01 nM.

In the case of B15, a half-maximal effect (EC50) was put at 0.01 nM. This counts as picomolar.

The target in a further assay is T3, human CNTN4 antigen expressed on the …. Briefly: FACS, 293FT cells transfected with human CNTN4, 40 ug/mL, anti-hFc-PE.
Consider B1, for which the Shift % was 86.6%.

Regarding B2, the Shift % was 84.7%.

For the molecule B3, the Shift % turned out to be 90.4%.

Regarding B4, the Shift % is 85.1%.

Take B5: the Shift % came to 80.4%.

On to B6, for which the Shift % was determined as 83.5%.

Turning to B7, the Shift % was 83.2%.

In the case of B8, the Shift % came out at 86.4%.

In the case of B9, the Shift % is 86.4%.

Take B10: the Shift % was 82.4%.

In the case of B11, the Shift % is 83.8%.

As for B12, the Shift % is 80.4%.

B13: the Shift % was found to be 77.9%.

As to B14, the Shift % is 84.8%.

As for B15, the Shift % worked out at 81.6%.

(Values after patent publication US20240182563A1 (GENOME, published 2024).)
